Source: the supplement of paper PMC10724198
± gives the standard deviation of the averaged measurements.
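Further: PSI is a weighted mean of sequencing reads over stability bins, variants kept only with over 10 reads, mCherry proximal and sfGFP distal, peptide attached via GGGS linker.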

What follows are sequences tested on Saccharomyces cerevisiae (assay: protein stability index of tFT-peptide fusion (C-terminal peptide) (PSI (0-1 scale)); higher = more stable (slower turnover)). Settings: genetic background: cdc53-1; temperature: 37 C.
Procedure: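 MPS profiling in S. cerevisiae of the tFT-X12 degron library: putative degron peptides plus stable controls, 12 aa, fused to the C-terminus of a sfGFP-mCherry timer. Cells are FACS-sorted into 8 mCherry/sfGFP bins and deep-sequenced. PSI runs from 0 (unstable) to 1 (stable). Backgrounds are wild type, das1Δ and doa10Δ at 30 °C, and wild type, das1Δ, cdc34-1 and cdc53-1 at 37 °C; 2-3 technical replicates each.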
With DAIVLGSVVVCR the protein stability index was 0.563 ± 0.017. For DCRFIIFYCVMV, the protein stability index was 0.5 ± 0.019. In the case of DDESLVGRWRKV, the protein stability index is reported as 0.7263 ± 0.00098. DFPGDIILRLIA showed a protein stability index of 0.748 ± 0.044. For DLAWAIGRLTKG, the protein stability index was 0.769 ± 0.033. DLPKAYCIEMIG showed a protein stability index of 0.718 ± 0.015. DNLYSLEFMAIR was tested, and the protein stability index was 0.78 ± 0.016. With DPPRPIMRIHMI the protein stability index was 0.651 ± 0.042. With DSPRGRCVRLLV the protein stability index was 0.74745 ± 0.00025. In the case of DWCACFFILLLA, the protein stability index is reported as 0.0382 ± 0.012. DWTVSYLWVTAL showed a protein stability index of 0.592 ± 0.019. In the case of ECCKRFCCRFVA, the protein stability index is reported as 0.6982 ± 0.0042. In the case of EERKIFLKVVKV, the protein stability index is reported as 0.496 ± 0.016. With EGGLGDRLLGVG the protein stability index was 0.577 ± 0.0092. EMISRNVFTYLS showed a protein stability index of 0.755 ± 0.012. Work on EMPRLSKAIRVT yielded a protein stability index of 0.5702 ± 0.0053. EVGTMALISCSV showed a protein stability index of 0.356 ± 0.084. With EWSRVVRWNWDG the protein stability index was 0.69857 ± 0.00044. FALVSLSFALVE gave a protein stability index of 0.457 ± 0.019. FAVHHLRYILLV showed a protein stability index of 0.325 ± 0.019. Sequence FCCSVFCFLCLY has a protein stability index of 0.548 ± 0.02. Sequence FCGLLGVCLVMG has a protein stability index of 0.298 ± 0.006. FCHFSSLVSVSL showed a protein stability index of 0.6089 ± 0.0042. FCLLRYPFVGVL was tested, and the protein stability index was 0.683 ± 0.025. FCSNLLSMVIAV gave a protein stability index of 0.382 ± 0.014. For FCVGVLFSCLVF, the protein stability index was 0.412 ± 0.032. FCVGVVIQLSGV showed a protein stability index of 0.491 ± 0.034. For FCVLLFYCFFFF, the protein stability index was 0.322 ± 0.099. Sequence FERKVHSRWLFF has a protein stability index of 0.745 ± 0.022. Work on FFATFVPSFLLC yielded a protein stability index of 0.674 ± 0.048. In the case of FFCYFFEFFICG, the protein stability index is reported as 0.419 ± 0.013. Sequence FFFVFLGLRSVF has a protein stability index of 0.358 ± 0.084. In the case of FFGFFWLFLLFC, the protein stability index is reported as 0.222 ± 0.005. With FFIVGACAYVFA the protein stability index was 0.30494 ± 0.00019. FFLLLVSVLSGW showed a protein stability index of 0.255 ± 0.047. FFPFHPHVLRLL gave a protein stability index of 0.433 ± 0.014. FFRAYLQMYVTD gave a protein stability index of 0.471 ± 0.021. FFVFLVLFCLWV was tested, and the protein stability index was 0.259 ± 0.065. Sequence FFVFMAKLRTCN has a protein stability index of 0.536 ± 0.034. Work on FFVFYICSCFLV yielded a protein stability index of 0.476 ± 0.0043. With FFYVFPFFIFRF the protein stability index was 0.31 ± 0.031. FGLRVHPIVFIF showed a protein stability index of 0.269 ± 0.0053. With FGLVAYPLWYIS the protein stability index was 0.765 ± 0.0058. Sequence FGSFVVWGVWWG has a protein stability index of 0.4975 ± 0.0029. FGVLGCAWVWVG showed a protein stability index of 0.528 ± 0.032. For FICLLFSCVYLG, the protein stability index was 0.535 ± 0.013. With FIGVLVFSWLLF the protein stability index was 0.371 ± 0.0074. FKVTWGLFYGSV showed a protein stability index of 0.653 ± 0.048. For FLCVLYFFLCVE, the protein stability index was 0.3209 ± 0.0031. FLQIIIFSRVLF was tested, and the protein stability index was 0.543 ± 0.059. FLRWRVWVVVGW was tested, and the protein stability index was 0.259 ± 0.024. FLSRLVGFYFVV gave a protein stability index of 0.69 ± 0.0093. In the case of FLSVPHLLFLFI, the protein stability index is reported as 0.634 ± 0.016. FLTLQSPIQYIV showed a protein stability index of 0.732 ± 0.013. FLTSPSVWRYLF gave a protein stability index of 0.7196 ± 0.0049. FLYIPLYCRLSF gave a protein stability index of 0.3 ± 0.006. Work on FPTLHPAIPYLC yielded a protein stability index of 0.672 ± 0.057. In the case of FRFGAKISLIVL, the protein stability index is reported as 0.565 ± 0.014. FRHFPLLLSFVR was tested, and the protein stability index was 0.4636 ± 0.0011. In the case of FRILVGCRVVLM, the protein stability index is reported as 0.51 ± 0.077.

Same assay, conditions: genetic background: das1 deletion; temperature: 30 C
For DAIVLGSVVVCR, the protein stability index was 0.393 ± 0.029. In the case of DCRFIIFYCVMV, the protein stability index is reported as 0.434 ± 0.053. DDESLVGRWRKV showed a protein stability index of 0.6402 ± 0.0045. DFPGDIILRLIA showed a protein stability index of 0.635 ± 0.014. For DLAWAIGRLTKG, the protein stability index was 0.654 ± 0.029. Sequence DLPKAYCIEMIG has a protein stability index of 0.613 ± 0.034. DNLYSLEFMAIR was tested, and the protein stability index was 0.647 ± 0.021. Sequence DPPRPIMRIHMI has a protein stability index of 0.671 ± 0.059. Work on DSPRGRCVRLLV yielded a protein stability index of 0.646 ± 0.013. In the case of DWCACFFILLLA, the protein stability index is reported as 0.117 ± 0.026. DWTVSYLWVTAL gave a protein stability index of 0.469 ± 0.025. With ECCKRFCCRFVA the protein stability index was 0.644 ± 0.0065. With EERKIFLKVVKV the protein stability index was 0.398 ± 0.025. EGGLGDRLLGVG gave a protein stability index of 0.501 ± 0.0078. EMISRNVFTYLS was tested, and the protein stability index was 0.619 ± 0.034. With EMPRLSKAIRVT the protein stability index was 0.371 ± 0.026. EVGTMALISCSV gave a protein stability index of 0.319 ± 0.05. EWSRVVRWNWDG gave a protein stability index of 0.637 ± 0.011. FALVSLSFALVE showed a protein stability index of 0.306 ± 0.025. With FAVHHLRYILLV the protein stability index was 0.316 ± 0.024. FCCSVFCFLCLY gave a protein stability index of 0.505 ± 0.027. FCGLLGVCLVMG showed a protein stability index of 0.243 ± 0.032. FCHFSSLVSVSL showed a protein stability index of 0.498 ± 0.024. FCLLRYPFVGVL showed a protein stability index of 0.554 ± 0.022. Sequence FCSNLLSMVIAV has a protein stability index of 0.32 ± 0.032. Sequence FCVGVLFSCLVF has a protein stability index of 0.313 ± 0.021. Sequence FCVGVVIQLSGV has a protein stability index of 0.311 ± 0.035. FCVLLFYCFFFF gave a protein stability index of 0.276 ± 0.039. Work on FERKVHSRWLFF yielded a protein stability index of 0.658 ± 0.011. Work on FFATFVPSFLLC yielded a protein stability index of 0.556 ± 0.02. FFCYFFEFFICG gave a protein stability index of 0.339 ± 0.028. In the case of FFFVFLGLRSVF, the protein stability index is reported as 0.357 ± 0.04. Sequence FFGFFWLFLLFC has a protein stability index of 0.291 ± 0.021. Sequence FFIVGACAYVFA has a protein stability index of 0.228 ± 0.031. FFLLLVSVLSGW was tested, and the protein stability index was 0.198 ± 0.017. FFPFHPHVLRLL was tested, and the protein stability index was 0.477 ± 0.039. FFRAYLQMYVTD gave a protein stability index of 0.413 ± 0.029. For FFVFLVLFCLWV, the protein stability index was 0.302 ± 0.035. Sequence FFVFMAKLRTCN has a protein stability index of 0.444 ± 0.025. FFVFYICSCFLV gave a protein stability index of 0.389 ± 0.02. With FFYVFPFFIFRF the protein stability index was 0.364 ± 0.04. FGLRVHPIVFIF gave a protein stability index of 0.374 ± 0.016. With FGLVAYPLWYIS the protein stability index was 0.668 ± 0.014. FGSFVVWGVWWG showed a protein stability index of 0.352 ± 0.036. For FGVLGCAWVWVG, the protein stability index was 0.465 ± 0.033. In the case of FICLLFSCVYLG, the protein stability index is reported as 0.464 ± 0.026. FIGVLVFSWLLF was tested, and the protein stability index was 0.241 ± 0.035. Work on FKVTWGLFYGSV yielded a protein stability index of 0.505 ± 0.034. FLCVLYFFLCVE showed a protein stability index of 0.253 ± 0.03. With FLQIIIFSRVLF the protein stability index was 0.377 ± 0.017. FLRWRVWVVVGW showed a protein stability index of 0.199 ± 0.035. In the case of FLSRLVGFYFVV, the protein stability index is reported as 0.587 ± 0.026. With FLSVPHLLFLFI the protein stability index was 0.494 ± 0.021. Work on FLTLQSPIQYIV yielded a protein stability index of 0.646 ± 0.053. FLTSPSVWRYLF showed a protein stability index of 0.693 ± 0.032. For FLYIPLYCRLSF, the protein stability index was 0.302 ± 0.031. With FPTLHPAIPYLC the protein stability index was 0.616 ± 0.017. FRFGAKISLIVL gave a protein stability index of 0.47 ± 0.018. With FRHFPLLLSFVR the protein stability index was 0.334 ± 0.033. FRILVGCRVVLM was tested, and the protein stability index was 0.355 ± 0.028.
